# Results reported in patent US20150267232A1, “IN VIVO AND IN VITRO CARBENE INSERTION AND NITRENE TRANSFER REACTIONS CATALYZED BY HEME ENZYMES” (California Institute of Technology, priority 2012, published 2015).
# Values joined by “and” are separate entries in the source; they are usually repeats but may differ in a detail not shown here. Identical values can stand only once.
# B1: P450BM3: wild-type cytochrome P450BM3 from Bacillus megaterium (SEQ ID NO: 1) (protein, listed as Bacillus megaterium)
# chain: TIKEMPQPKTFGELKNLPLLNTDKPVQALMKIADELGEIFKFEAPGRVTRYLSSQRLIKEACDESRFDKNLSQALKFVRDFAGDGLFTSWTHEKNWKKAHNILLPSFSQQAMKGYHAMMVDIAVQLVQKWERLNADEHIEVPEDMTRLTLDTIGLCGFNYRFNSFYRDQPHPFITSMVRALDEAMNKLQRANPDDPAYDENKRQFQEDIKVMNDLVDKIIADRKASGEQSDDLLTHMLNGKDPETGEPLDDENIRYQIITFLIAGHETTSGLLSFALYFLVKNPHVLQKAAEEAARVLVDPVPSYKQVKQLKYVGMVLNEALRLWPTAPAFSLYAKEDTVLGGEYPLEKGDELMVLIPQLHRDKTIWGDDVEEFRPERFENPSAIPQHAFKPFGNGQRACIGQQFALHEATLVLGMMLKHFDFEDHTNYELDIKETLTLKPEGFVVKAKSKKIPLGGIPSPSTEQSAKKVRKKAENAHNTPLLVLYGSNMGTAEGTARDLADIAMSKGFAPQVATLDSHAGNLPREGAVLIVTASYNGHPPDNAKQFVDWLDQASADEVKGVRYSVFGCGDKNWATTYQKVPAFIDETLAAKGAENIADRGEADASDDFEGTYEEWREHMWSDVAAYFNLDIENSEDNKSTLSLQFVDSAADMPLAKMHGAFSTNVVASKELQQPGSARSTRHLEIELPKEASYQEGDHLGVIPRNYEGIVNRVTARFGLDASQQIRLEAEEEKLAHLPLAKTVSVEELLQYVELQDPVTRTQLRAMAAKTVCPPHKVELEALLEKQAYKEQVLAKRLTMLELLEKYPACEMKFSEFIALLPSIRPRYYSISSSPRVDEKQASITVSVVSGEAWSGYGEYKGIASNYLAELQEGDTITCFISTPQSEFTLPKDPETPLIMVGPGTGVAPFRGFVQARKQLKEQGQSLGEAHLYFGCRSPHEDYLYQEELENAQSEGIITLHTAFSRMPNQPKTYVQHVMEQDGKKLIELLDQGAHFYICGDGSQMAPAVEATLMKSYADVHQVSEADARLWLQQLEEKGRYAKDVWAG
# modifications: cytochrome P450NADPH-P-450 reductase precursor, cytochrome P450 (BM3), CYP102A1
# B2: BM3-T268A: P450BM3 variant: T268A (protein, listed as Bacillus megaterium)
# chain: TIKEMPQPKTFGELKNLPLLNTDKPVQALMKIADELGEIFKFEAPGRVTRYLSSQRLIKEACDESRFDKNLSQALKFVRDFAGDGLFTSWTHEKNWKKAHNILLPSFSQQAMKGYHAMMVDIAVQLVQKWERLNADEHIEVPEDMTRLTLDTIGLCGFNYRFNSFYRDQPHPFITSMVRALDEAMNKLQRANPDDPAYDENKRQFQEDIKVMNDLVDKIIADRKASGEQSDDLLTHMLNGKDPETGEPLDDENIRYQIITFLIAGHEATSGLLSFALYFLVKNPHVLQKAAEEAARVLVDPVPSYKQVKQLKYVGMVLNEALRLWPTAPAFSLYAKEDTVLGGEYPLEKGDELMVLIPQLHRDKTIWGDDVEEFRPERFENPSAIPQHAFKPFGNGQRACIGQQFALHEATLVLGMMLKHFDFEDHTNYELDIKETLTLKPEGFVVKAKSKKIPLGGIPSPSTEQSAKKVRKKAENAHNTPLLVLYGSNMGTAEGTARDLADIAMSKGFAPQVATLDSHAGNLPREGAVLIVTASYNGHPPDNAKQFVDWLDQASADEVKGVRYSVFGCGDKNWATTYQKVPAFIDETLAAKGAENIADRGEADASDDFEGTYEEWREHMWSDVAAYFNLDIENSEDNKSTLSLQFVDSAADMPLAKMHGAFSTNVVASKELQQPGSARSTRHLEIELPKEASYQEGDHLGVIPRNYEGIVNRVTARFGLDASQQIRLEAEEEKLAHLPLAKTVSVEELLQYVELQDPVTRTQLRAMAAKTVCPPHKVELEALLEKQAYKEQVLAKRLTMLELLEKYPACEMKFSEFIALLPSIRPRYYSISSSPRVDEKQASITVSVVSGEAWSGYGEYKGIASNYLAELQEGDTITCFISTPQSEFTLPKDPETPLIMVGPGTGVAPFRGFVQARKQLKEQGQSLGEAHLYFGCRSPHEDYLYQEELENAQSEGIITLHTAFSRMPNQPKTYVQHVMEQDGKKLIELLDQGAHFYICGDGSQMAPAVEATLMKSYADVHQVSEADARLWLQQLEEKGRYAKDVWAG
# modifications: cytochrome P450NADPH-P-450 reductase precursor, cytochrome P450 (BM3), CYP102A1
# B3: ABC-T268A: P450BM3 variant: T268A, C400S (protein, listed as Bacillus megaterium)
# chain: TIKEMPQPKTFGELKNLPLLNTDKPVQALMKIADELGEIFKFEAPGRVTRYLSSQRLIKEACDESRFDKNLSQALKFVRDFAGDGLFTSWTHEKNWKKAHNILLPSFSQQAMKGYHAMMVDIAVQLVQKWERLNADEHIEVPEDMTRLTLDTIGLCGFNYRFNSFYRDQPHPFITSMVRALDEAMNKLQRANPDDPAYDENKRQFQEDIKVMNDLVDKIIADRKASGEQSDDLLTHMLNGKDPETGEPLDDENIRYQIITFLIAGHEATSGLLSFALYFLVKNPHVLQKAAEEAARVLVDPVPSYKQVKQLKYVGMVLNEALRLWPTAPAFSLYAKEDTVLGGEYPLEKGDELMVLIPQLHRDKTIWGDDVEEFRPERFENPSAIPQHAFKPFGNGQRASIGQQFALHEATLVLGMMLKHFDFEDHTNYELDIKETLTLKPEGFVVKAKSKKIPLGGIPSPSTEQSAKKVRKKAENAHNTPLLVLYGSNMGTAEGTARDLADIAMSKGFAPQVATLDSHAGNLPREGAVLIVTASYNGHPPDNAKQFVDWLDQASADEVKGVRYSVFGCGDKNWATTYQKVPAFIDETLAAKGAENIADRGEADASDDFEGTYEEWREHMWSDVAAYFNLDIENSEDNKSTLSLQFVDSAADMPLAKMHGAFSTNVVASKELQQPGSARSTRHLEIELPKEASYQEGDHLGVIPRNYEGIVNRVTARFGLDASQQIRLEAEEEKLAHLPLAKTVSVEELLQYVELQDPVTRTQLRAMAAKTVCPPHKVELEALLEKQAYKEQVLAKRLTMLELLEKYPACEMKFSEFIALLPSIRPRYYSISSSPRVDEKQASITVSVVSGEAWSGYGEYKGIASNYLAELQEGDTITCFISTPQSEFTLPKDPETPLIMVGPGTGVAPFRGFVQARKQLKEQGQSLGEAHLYFGCRSPHEDYLYQEELENAQSEGIITLHTAFSRMPNQPKTYVQHVMEQDGKKLIELLDQGAHFYICGDGSQMAPAVEATLMKSYADVHQVSEADARLWLQQLEEKGRYAKDVWAG
# modifications: cytochrome P450NADPH-P-450 reductase precursor, cytochrome P450 (BM3), CYP102A1
# notes: P450BM3 variant: T268A, C400S
# B4: ABC-CIS: BM3-CIS + C400S (protein, listed as Bacillus megaterium)
# chain: TIKEMPQPKTFGELKNLPLLNTDKPVQALMKIADELGEIFKFEAPGRVTRYLSSQRLIKEACDESRFDKNLSQALKFARDFAGDGLVTSWTHEKNWKKAHNILLPSFSQQAMKGYHAMMVDIAVQLVQKWERLNADEHIEVSEDMTRLTLDTIGLCGFNYRFNSFYRDQPHPFIISMVRALDEVMNKLQRANPDDPAYDENKRQFQEDIKVMNDLVDKIIADRKARGEQSDDLLTQMLNGKDPETGEPLDDGNIRYQIITFLIAGHEATSGLLSFALYFLVKNPHVLQKVAEEAARVLVDPVPSYKQVKQLKYVGMVLNEALRLWPTAPAFSLYAKEDTVLGGEYPLEKGDEVMVLIPQLHRDKTVWGDDVEEFRPERFENPSAIPQHAFKPFGNGQRASIGQQFALHEATLVLGMMLKHFDFEDHTNYELDIKETLTLKPKGFVVKAKSKKIPLGGIPSPSTEQSAKKVRKKAENAHNTPLLVLYGSNMGTAEGTARDLADIAMSKGFAPQVATLDSHAGNLPREGAVLIVTASYNGHPPDNAKQFVDWLDQASADEVKGVRYSVFGCGDKNWATTYQKVPAFIDETLAAKGAENIADRGEADASDDFEGTYEEWREHMWSDVAAYFNLDIENSEDNKSTLSLQFVDSAADMPLAKMHGAFSTNVVASKELQQPGSARSTRHLEIELPKEASYQEGDHLGVIPRNYEGIVNRVTARFGLDASQQIRLEAEEEKLAHLPLAKTVSVEELLQYVELQDPVTRTQLRAMAAKTVCPPHKVELEALLEKQAYKEQVLAKRLTMLELLEKYPACEMKFSEFIALLPSIRPRYYSISSSPRVDEKQASITVSVVSGEAWSGYGEYKGIASNYLAELQEGDTITCFISTPQSEFTLPKDPETPLIMVGPGTGVAPFRGFVQARKQLKEQGQSLGEAHLYFGCRSPHEDYLYQEELENAQSEGIITLHTAFSRMPNQPKTYVQHVMEQDGKKLIELLDQGAHFYICGDGSQMAPAVEATLMKSYADVHQVSEADARLWLQQLEEKGRYAKDVWAG
# modifications: cytochrome P450NADPH-P-450 reductase precursor, cytochrome P450 (BM3), CYP102A1
# notes: BM3-CIS + C400S
# Experiment: Small-scale anaerobic C—H amination with purified enzymes, azide 1
# Format: biochemical
# Conditions: for activity with reductant NADPH: NADPH (2 mM); for activity with reductant NADPH / activity with reductant Dithionite / Product (3): azide 1; for activity with reductant Dithionite: dithionite (2 mM); for Product (3): 0.1% loading, TTN
# Outline: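 Purified P450 or P411 enzymes (0.1-0.5% catalyst loading) in 400 μL reactions of 0.1 M potassium phosphate pH 8.0 with a catalase/glucose oxidase oxygen-depletion system were made anaerobic under argon, given 10 μL of 80 mM arylsulfonyl azide in DMSO, and stirred 24 h at room temperature. After HCl quench and acetonitrile addition, sultam was quantified by HPLC at 220 nm against an internal standard; enantioselectivity was measured by chiral HPLC.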
# [1] = 0.1 mol % catalyst loading (2 μM), 2 mM azide 1, 2 mM NADPH, benzosultam 3
# [2] = catalyst loading 0.5 mol %, NADPH, anaerobic
# [3] = 0.1 mol % catalyst loading, (S−R)/(S+R), benzosultam 3
# [4] = CS heme-Na2S2O4 + NADPH (heme domain)
# [5] = Complete system (CS), holoenzyme
molecule,measurement,setting,value
B1,TTN,[1],2.1
same,TTN (C—H amination product 3),[2],4
B2,TTN,[1],15
same,% ee,[3],36%
same,activity with reductant NADPH,0.1 mol % loading,22
same,TTN (C—H amination product 3),[2],28
same,activity with reductant Dithionite,0.1 mol % loading,25
B3,Product (3),,135
same,TTN,[1],120
same,% ee,[3],58%
same,% activity,Boiled P450heme,9.1%
same,% ee,Boiled P450heme,3%
same,TTN,Boiled P450heme,10
same,% activity,Boiled P450holo,30%
same,% ee,Boiled P450holo,1%
same,TTN,Boiled P450holo,33
same,% activity,CS + CO,4.4%
same,TTN,CS + CO,5
same,% activity,CS aerobic,9.1%
same,% ee,CS aerobic,60%
same,TTN,CS aerobic,10
same,% activity,CS heme,145%
same,% ee,CS heme,91%
same,TTN,"CS heme (heme domain, 2 mM Na2S2O4)",160
same,% activity,CS heme + CO,0%
same,TTN,CS heme + CO,0
same,% activity,CS heme aerobic,0%
same,TTN,CS heme aerobic,0
same,% activity,[4],3.6%
same,TTN,[4],4
same,% ee,CS-NADPH + Na2S2O4,44%
same,TTN,CS-NADPH + Na2S2O4,130
same,% activity,"CS-NADPH + Na2S2O4, residual activity (CS = 100%)",120%
same,% ee,[5],38%
same,TTN,[5],110
same,activity with reductant NADPH,0.1 mol % loading,110
same,activity with reductant Dithionite,0.1 mol % loading,110
B4,Product (3),,310
same,TTN,[1],313 and 310
same,% ee,[3],67%
same,TTN,[NADPH] 0 mM,0
same,[sultam],[NADPH] 0 mM,0 mM
same,TTN,[NADPH] 0.01 mM,27
same,[sultam],[NADPH] 0.01 mM,0.053 mM
same,TTN,[NADPH] 0.02 mM,82
same,[sultam],[NADPH] 0.02 mM,0.164 mM
same,TTN,[NADPH] 0.1 mM,243
same,[sultam],[NADPH] 0.1 mM,0.486 mM
same,TTN,[NADPH] 2 mM,161
same,[sultam],"[NADPH] 2 mM, 0.1 mol % loading",0.322 mM
same,TTN (C—H amination product 3),[2],over 140
same,yield of 3 by HPLC,[2],73%
